Results taken from patent US20250368734A1 (ANTENGENE BIOLOGICS, published 2025).

T1: mouse GPRC5D (mouse, UniProt Q9JIL6 1-344)
T1 construct: whole, on cells; HEK293T-mGPRC5D cells; also called mGPRC5D; murine GPRC5D
T1 sequence (looked up): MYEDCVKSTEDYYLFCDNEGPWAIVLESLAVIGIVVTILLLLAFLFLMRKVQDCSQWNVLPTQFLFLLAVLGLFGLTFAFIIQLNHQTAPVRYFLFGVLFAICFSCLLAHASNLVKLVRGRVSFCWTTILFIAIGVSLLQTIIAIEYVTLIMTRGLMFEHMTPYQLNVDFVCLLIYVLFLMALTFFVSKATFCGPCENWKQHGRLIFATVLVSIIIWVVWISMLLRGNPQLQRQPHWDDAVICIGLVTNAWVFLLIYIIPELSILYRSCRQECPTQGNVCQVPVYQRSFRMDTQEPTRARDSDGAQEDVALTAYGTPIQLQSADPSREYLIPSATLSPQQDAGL

B1: Bis-83A9B8 (bispecific antibody)
chain 1: EVQLQQSGPELVKPGASVKMSCKASGYTFSNYVIHWVKQKPGQGLEWIGYFNPYNDGSKYNEKFKGKATLTSDKSSSTAYMELSSLTSEDSAVYYCARGGVRRYFDVWGAGTTVTVSS
chain 2: GGGGSGGGGSGGGGSEVQLVESGGGLVQPGRSLRLSCAASGFTFDNYAMHWVRQAPGKGLEWVSGISWNSGSIGYADSVKGRFTISRDNAKNSLYLQMNSLRAEDTALYYCAKDSRGYGDYSRGGAYWGQGTLVTVSSEIVMTQSPATLSVSPGERATLSCRASQSVSSNLAWYQQKPGQAPRLLIYGASTRATGIPARFSGSGSGTEFTLTISSLQSEDFAVYYCQQYNNWPWTFGQGTKVEIK
chain 3: DIQMTQSPSSLSASLGERVSLTCRASQDIGDNLNWLQQEPDGTIKRLIYATFSLDSGVPKRFSGSRSGSVYSLTISRLESEDFVDYFCLHYASFPYTFGGGTKLEIK
B2: Bis-26E2H6 (bispecific antibody)
chain 1: EVQLVESGGDLVKPGGSLKLSCAASGFTFSSYGMSWVRQTPDKRLEWVATISSGGSYTYYPDSVKGRFTISRDNAKNTLYLQMSSLKSEDTAMYYCARHATDYWGQGTTLTVSS
chain 2: GGGGSGGGGSGGGGSEVQLVESGGGLVQPGRSLRLSCAASGFTFDNYAMHWVRQAPGKGLEWVSGISWNSGSIGYADSVKGRFTISRDNAKNSLYLQMNSLRAEDTALYYCAKDSRGYGDYSRGGAYWGQGTLVTVSSEIVMTQSPATLSVSPGERATLSCRASQSVSSNLAWYQQKPGQAPRLLIYGASTRATGIPARFSGSGSGTEFTLTISSLQSEDFAVYYCQQYNNWPWTFGQGTKVEIK
chain 3: QIVLTQSPAIMSASPGEKVTMTCSASSSVSYMHWYQQKSGTSPKRWIYDTSKLASGVPARFSGSGSGTSYSLTISSMEAEDAATYYCQQWSSNPLTFGAGTKLELK
B3: Bis-15D6G2 (bispecific antibody)
chain 1: EVQLVESGGDLVKPGGYLRLSCAASGFTFSSHGMSWVRQTPDKRLEWVATISSGGRNTYYPDSVKGRFTISRDNAKNILYLQMSSLKSEDTAMFYCTRHSGDAMDYWGQGTSVTVSS
chain 2: GGGGSGGGGSGGGGSEVQLVESGGGLVQPGRSLRLSCAASGFTFDNYAMHWVRQAPGKGLEWVSGISWNSGSIGYADSVKGRFTISRDNAKNSLYLQMNSLRAEDTALYYCAKDSRGYGDYSRGGAYWGQGTLVTVSSEIVMTQSPATLSVSPGERATLSCRASQSVSSNLAWYQQKPGQAPRLLIYGASTRATGIPARFSGSGSGTEFTLTISSLQSEDFAVYYCQQYNNWPWTFGQGTKVEIK
chain 3: DILLTQSPAILSVSPGERVSFSCRASQSIGTNIHWYQQRTNGSPRLLIKYASESISGIPSRFSGSGSGTDFTLSINSVESEDIADYYCQQSKSWPTFGGGTKLEIK
B4: Bis-108C4C12 (bispecific antibody)
chain 1: EVQLQQSGPELVKPGASVKMSCKASGYTFTSYVIHWVKQKTGQGLEWIGYFNPYNDGTKYNEEFKGKATLTSDKSSNTAYMELNSLTSDDSAVYFCARGGVRRYFDVWGAGTTVTVSS
chain 2: GGGGSGGGGSGGGGSEVQLVESGGGLVQPGRSLRLSCAASGFTFDNYAMHWVRQAPGKGLEWVSGISWNSGSIGYADSVKGRFTISRDNAKNSLYLQMNSLRAEDTALYYCAKDSRGYGDYSRGGAYWGQGTLVTVSSEIVMTQSPATLSVSPGERATLSCRASQSVSSNLAWYQQKPGQAPRLLIYGASTRATGIPARFSGSGSGTEFTLTISSLQSEDFAVYYCQQYNNWPWTFGQGTKVEIK
chain 3: DIQMTQSPSSLSASLGERVSLTCRASQDIGSNLNWLQQEPDGTIKRLIYATFGLDSGVPKRFSGSRSGSDYSLTISSLESEDFVDYYCQQYASFPYTFGGGTKLEIK
B5: 98A3A8 (antibody, V domains shown)
VH: EVQLQQSGPELVKPGASVKMSCKASGYTFTYYVTHWVRQKPGQGLEWIGYINPYNDGTMFNEKFKGKATLTSDKSSSTAYMEFSSLTSEDSAVFYCARGGVRRYFDVWGAGTTVTVSS
VL: DIQMTQSPSSLSASLGERVSLTCRASQDIGSNLNWLQQKPDGTIKRLIYATSSLDSGVPKRFSGSRSGSDYSLTINSLESEDFVDYYCLQYASFPYTFGGGTKLEIK
notes: Mouse monoclonal antibody from hybridoma subclone
B6: Bis-110B4H5 (bispecific antibody)
chain 1: EVQLQQSGPELVKPGASVKMSCKASGYTFTFYIMHWVKQKPGQGPEWIGYINPYNDGTKYNAKFKGKATLSSDRSSSTAYMELSSLTSEDSAVYYCARGGVRRYFDVWGAGTPVTVSS
chain 2: GGGGSGGGGSGGGGSEVQLVESGGGLVQPGRSLRLSCAASGFTFDNYAMHWVRQAPGKGLEWVSGISWNSGSIGYADSVKGRFTISRDNAKNSLYLQMNSLRAEDTALYYCAKDSRGYGDYSRGGAYWGQGTLVTVSSEIVMTQSPATLSVSPGERATLSCRASQSVSSNLAWYQQKPGQAPRLLIYGASTRATGIPARFSGSGSGTEFTLTISSLQSEDFAVYYCQQYNNWPWTFGQGTKVEIK
chain 3: DIQMTQSPSSLSASLGERVSLTCRSSQDIGSNLNWLQQEPDGTIKRLIYATFSLDSGVPKRFSGSRSGSHYSLTISSLESEDFVVYYCLQYGSFPYTFGGGTKLEIK
B7: Bis-96C9E7 (bispecific antibody)
chain 1: EVQLQQSGPELVKPGASVKMSCKASGYTFTYYILHWVKQKPGQGLEWIGYFNPYNDGNKFNERFRGKATLTSDKSSSTAYMELNSLTSEDSAVYFCARGGVRRYFDVWGAGTTVTVSS
chain 2: GGGGSGGGGSGGGGSEVQLVESGGGLVQPGRSLRLSCAASGFTFDNYAMHWVRQAPGKGLEWVSGISWNSGSIGYADSVKGRFTISRDNAKNSLYLQMNSLRAEDTALYYCAKDSRGYGDYSRGGAYWGQGTLVTVSSEIVMTQSPATLSVSPGERATLSCRASQSVSSNLAWYQQKPGQAPRLLIYGASTRATGIPARFSGSGSGTEFTLTISSLQSEDFAVYYCQQYNNWPWTFGQGTKVEIK
chain 3: DIQMTQSPSSLSASLGERVSLTCRASQDIGSNLNWLQQEPDGTIKRLISATFSLDSGVPKRFSGSRSGSDYSLTISSLESEDFVNYYCLQYASFPYTFGGGTKLEIK
B8: Bis-116G1G4 (bispecific antibody)
chain 1: EVQLQQSGPELVKPGASVKMSCKASGYTFTYYIMHWVKQEPGQGLQWIGYINPYNDGAYYSARFKGKATLTSDKSSSTAYMDLTSLTSEDSAVYYCARGGVRRYFDVWGAGTTVTVSS
chain 2: GGGGSGGGGSGGGGSEVQLVESGGGLVQPGRSLRLSCAASGFTFDNYAMHWVRQAPGKGLEWVSGISWNSGSIGYADSVKGRFTISRDNAKNSLYLQMNSLRAEDTALYYCAKDSRGYGDYSRGGAYWGQGTLVTVSSEIVMTQSPATLSVSPGERATLSCRASQSVSSNLAWYQQKPGQAPRLLIYGASTRATGIPARFSGSGSGTEFTLTISSLQSEDFAVYYCQQYNNWPWTFGQGTKVEIK
chain 3: DIQMTQSPSSLSASLGERVILTCRASQDIGSNLIWLQQKPDGTIKRLIYATFNLDSGVSKRFSGSRSGSDYSLTISSLDSEDFVDYYCLQYASSPYTFGGGTKLEIK
B9: Bis-98A3A8 (bispecific antibody)
chain 1: EVQLQQSGPELVKPGASVKMSCKASGYTFTYYVTHWVRQKPGQGLEWIGYINPYNDGTMFNEKFKGKATLTSDKSSSTAYMEFSSLTSEDSAVFYCARGGVRRYFDVWGAGTTVTVSS
chain 2: GGGGSGGGGSGGGGSEVQLVESGGGLVQPGRSLRLSCAASGFTFDNYAMHWVRQAPGKGLEWVSGISWNSGSIGYADSVKGRFTISRDNAKNSLYLQMNSLRAEDTALYYCAKDSRGYGDYSRGGAYWGQGTLVTVSSEIVMTQSPATLSVSPGERATLSCRASQSVSSNLAWYQQKPGQAPRLLIYGASTRATGIPARFSGSGSGTEFTLTISSLQSEDFAVYYCQQYNNWPWTFGQGTKVEIK
chain 3: DIQMTQSPSSLSASLGERVSLTCRASQDIGSNLNWLQQKPDGTIKRLIYATSSLDSGVPKRFSGSRSGSDYSLTINSLESEDFVDYYCLQYASFPYTFGGGTKLEIK
B10: 101B3G3 (antibody, V domains shown)
VH: EVQLQQSGPELVKPGASMKISCKASGYSFTGYTMNWVKQSHGKNLEWIGLINPYNGGTRYNQKFKDKATLTVDKSSSTAYMELLSLTSEDSAVYYCARWLLRYAMDYWGQGTSVTVSS
VL: DIVMTQSQKFMSTSVGDRVSITCKASQNVGNAVAWYQQKPGHSPKLLISSASNRKNGVPDRFTGSGSGTDFTLTVSNMQSEDLADYFCQQYSDSSWTFGGGTKLEIK
notes: as for B5

What was measured:
human GPRC5D [1] = molecular target: T2, human GPRC5D (human, UniProt Q9NZD1 1-345); assay: cell-based or functional assay
human GPRC5D [2] = molecular target: T2, human GPRC5D; assay: FACS, OPM-2 cells
From the text: (§1) The subcloning plates were screened by Mirrorball assay and the subclones with good binding ability were expanded to 24-wells for confirmation tests. The specificity and cross-reactivity of these subclones were confirmed with FACS analysis. Briefly, parental HEK293T, HEK293T cells stably over-expressing human GPRC5D protein (i.e., HEK293T-hGPRC5D), HEK293T cells stably over-expressing cynomolgus monkey GPRC5D protein (i.e., HEK293T-cynoGPRC5D), HEK293T cells stably over-expressing mouse GPRC5D protein (i.e., HEK293T-mGPRC5D), and OPM2 cells were incubated with antibodies produced by each subclone, respectively. Fluorescent dye-conjugated secondary antibody was used to detect the binding of the primary antibody with the cells. Median fluorescence intensity (MFI) was measured by FACS analysis,
(§2) As a result, 21 antibodies were discovered with unique sequences showing positive binding with HEK293T-hGPRC5D and OPM2 cells. Among which, some clones could also bind with HEK293T-cynoGPRC5D and/or HEK293T-mGPRC5D. […] ATG596 was a positive human IgG1 control antibody which comprises a VH region having an amino acid sequence as set forth in SEQ ID NO: 199, and a VL region having an amino acid sequence as set forth in SEQ ID NO: 200.

human GPRC5D [3] = molecular target: T2, human GPRC5D; assay: FACS, HEK293T-hGPRC5D cells
From the text: as §1, §2

mouse GPRC5D = molecular target: T1, mouse GPRC5D; assay: FACS, HEK293T-mGPRC5D cells
From the text: as §1, §2

cynomolgus monkey GPRC5D = molecular target: T3, cynomolgus monkey GPRC5D (cynomolgus monkey); assay: FACS, HEK293T-cynoGPRC5D cells
T3 construct: whole, on cells; HEK293T-cynoGPRC5D cells; also called cynoGPRC5D
From the text: as §1, §2

T2 sequence (Q9NZD1 whole entry): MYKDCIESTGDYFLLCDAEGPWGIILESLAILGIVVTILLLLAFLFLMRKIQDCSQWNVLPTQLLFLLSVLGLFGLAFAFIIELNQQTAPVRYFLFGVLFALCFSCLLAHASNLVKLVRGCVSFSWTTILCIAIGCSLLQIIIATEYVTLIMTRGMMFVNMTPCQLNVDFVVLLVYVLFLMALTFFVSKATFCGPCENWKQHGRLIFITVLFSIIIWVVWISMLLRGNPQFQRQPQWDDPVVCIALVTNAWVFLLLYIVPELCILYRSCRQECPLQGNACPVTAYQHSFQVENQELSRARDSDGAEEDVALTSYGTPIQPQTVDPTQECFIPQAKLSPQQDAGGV

Binder	EC50 (human GPRC5D [1]) [nM]	Top killing % (human GPRC5D [1]) [%]	further results
B1	1.9	66.9	–
B2	30.5	79.1	–
B3	6.69	45.9	–
B4	1.44	67.9	–
B5	–	–	% Positive (human GPRC5D [2]): 98.7%; MFI (human GPRC5D [2]): 962; % Positive (human GPRC5D [3]): 93.2%; MFI (human GPRC5D [3]): 2070; % Positive (mouse GPRC5D): 89.4%; MFI (mouse GPRC5D): 566; % Positive (cynomolgus monkey GPRC5D): 95.3%; MFI (cynomolgus monkey GPRC5D): 2070
B6	3.62	61.5	–
B7	2.34	66.2	–
B8	1.88	69.2	–
B9	2.95	64.4	–
B10	–	–	% Positive (human GPRC5D [2]): 99.6%; MFI (human GPRC5D [2]): 1370; % Positive (human GPRC5D [3]): 97.9%; MFI (human GPRC5D [3]): 27100; % Positive (mouse GPRC5D): 85.2%; MFI (mouse GPRC5D): 1480; % Positive (cynomolgus monkey GPRC5D): 57.4%; MFI (cynomolgus monkey GPRC5D): 585
